From EP4741420A1, “PHARMACEUTICAL COMPOSITION FOR PREVENTING OR TREATING OBESITY COMPRISING GLP ANALOGUE AS ACTIVE INGREDIENT” (priority 2023, dated 2025)
Each block holds one molecule with its values, some of them ahead of it. Ends that are not written are not given here. Peptide text beside a SMILES is read from it. * marks the point of attachment. Palmitoyl = CCCCCCCCCCCCCCCC(=O)*

Legend:
C57BL/6 DIO mice [1] = assay: Diet-induced obesity mouse model: body weight and food intake (Example 3); assay type: in vivo; settings: 4 weeks administration, 0.20 mg/kg/dose
C57BL/6 DIO mice [2] = assay: Diet-induced obesity mouse model: blood/serum biochemical tests (Example 3); assay type: in vivo; settings: after 4 weeks, 0.20 mg/kg/dose (dose from Table 3)
Description: Here, the body weight and food intake were measured daily.
In addition, after the experiment was completed, blood and serum samples were obtained from each mouse model, and biochemical tests were performed for blood glucose, total cholesterol, high-density lipoprotein (HDL), low-density lipoprotein (LDL), and triglycerides.

GLP-1R = GLP-1R (Homo sapiens, UniProt P43220); assay: GLP-1 activation: cell-based cAMP assay in GLP-1R/CHO cells; settings: Example 5, relative to Exendin-4
GLP-2 = target: T1, GLP-2 (Homo sapiens, UniProt O95838); assay: GLP-2 activity, cell-based cAMP assay (same method as Example 2); settings: for GLP-2 activity Compared to GLP-2: Example 5, relative to GLP-2
T1 sequence (O95838 1-553): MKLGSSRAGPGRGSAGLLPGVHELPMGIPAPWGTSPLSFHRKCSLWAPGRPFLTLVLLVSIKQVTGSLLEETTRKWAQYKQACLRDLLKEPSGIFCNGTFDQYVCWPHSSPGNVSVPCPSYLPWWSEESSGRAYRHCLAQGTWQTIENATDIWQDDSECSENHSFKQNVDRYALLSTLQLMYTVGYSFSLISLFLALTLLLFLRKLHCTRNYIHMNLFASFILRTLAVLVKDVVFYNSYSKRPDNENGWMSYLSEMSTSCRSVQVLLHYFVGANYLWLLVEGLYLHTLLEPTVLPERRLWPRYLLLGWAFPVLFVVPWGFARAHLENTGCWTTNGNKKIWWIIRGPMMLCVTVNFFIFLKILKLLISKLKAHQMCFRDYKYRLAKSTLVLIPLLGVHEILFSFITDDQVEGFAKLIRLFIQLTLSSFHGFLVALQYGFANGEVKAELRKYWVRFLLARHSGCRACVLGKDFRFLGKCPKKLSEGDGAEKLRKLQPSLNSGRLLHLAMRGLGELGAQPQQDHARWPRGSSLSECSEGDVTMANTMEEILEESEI

[3] = Mouse PK after single subcutaneous administration, LC-MS/MS of plasma; assay type: in vivo, mice; settings: C57BL/6N male mice, single subcutaneous dose 0.2 mg/5 mL/kg, plasma
Description: Each of the experimental groups and the control was subcutaneously administered once to the dorsal area of a total of 12 mice using a 1 mL syringe equipped with a 26-gauge needle at a dose of 0.2 mg/5 mL/kg. After drug administration, approximately 0.04 to 0.05 mL of blood was collected per individual at the time scheduled for the orbital vein (4 mice were alternately sampled), and the blood collection times were 1, 2, 4, 8, 24 ,32 ,48, 56, 72, 96, and 120 hours. All plasma samples were analyzed using a self-developed LC-MS/MS assay. Pharmacokinetic analysis of blood drugs was performed using non-compartmental analysis, and analysis of pharmacokinetic parameters was performed using Phoenix WinNolin 64 (Version. 8.3.5 340).

[4] = target: T2, GLP-1R (on GLP-1R/CHO cells, DiscoverX 95-0062C2) (UniProt P43220 24-463); assay: cell-based or functional assay
[5] = target: T2, GLP-1R (on GLP-1R/CHO cells, DiscoverX …); assay: cell-based or functional assay; remark: listed apart in the source

T2 sequence (P43220 24-463 limits assumed): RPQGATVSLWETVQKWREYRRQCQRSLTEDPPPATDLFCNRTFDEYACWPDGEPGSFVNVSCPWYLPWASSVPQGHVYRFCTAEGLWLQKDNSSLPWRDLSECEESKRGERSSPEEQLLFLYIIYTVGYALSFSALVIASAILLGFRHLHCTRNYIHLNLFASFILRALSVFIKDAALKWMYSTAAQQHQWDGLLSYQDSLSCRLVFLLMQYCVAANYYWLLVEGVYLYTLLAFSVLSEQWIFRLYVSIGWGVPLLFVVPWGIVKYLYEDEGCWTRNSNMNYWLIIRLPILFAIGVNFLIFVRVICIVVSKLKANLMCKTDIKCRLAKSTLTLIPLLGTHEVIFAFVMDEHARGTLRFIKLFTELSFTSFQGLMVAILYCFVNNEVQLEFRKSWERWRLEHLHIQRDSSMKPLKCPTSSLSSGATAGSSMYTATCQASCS
Chain of GLP-1R (P43220 24-463): as the sequence (P43220 24-463 limits assumed) above

Molecule: CCCCCCCCCCCCCCCC(=O)N[C@@H](CCC(=O)NCCCC[C@H](NC(=O)[C@H](C)NC(=O)[C@H](C)NC(=O)[C@H](CCC(N)=O)NC(=O)CNC(=O)[C@H](CCC(=O)O)NC(=O)[C@H](CC(C)C)NC(=O)[C@H](Cc1ccc(O)cc1)NC(=O)[C@H](CO)NC(=O)[C@H](CO)NC(=O)[C@@H](NC(=O)[C@H](CC(=O)O)NC(=O)[C@H](CO)NC(=O)[C@@H](NC(=O)[C@H](Cc1ccccc1)NC(=O)[C@@H](NC(=O)CNC(=O)[C@H](CCC(=O)O)NC(=O)[C@H](C)NC(=O)[C@@H](N)Cc1c[nH]cn1)[C@@H](C)O)[C@@H](C)O)C(C)C)C(=O)N[C@@H](CCC(=O)O)C(=O)N[C@@H](Cc1ccccc1)C(=O)N[C@H](C(=O)N[C@@H](C)C(=O)N[C@@H](Cc1c[nH]c2ccccc12)C(=O)N[C@@H](CC(C)C)C(=O)N[C@H](C(=O)N[C@@H](CCCNC(=N)N)C(=O)NCC(=O)N[C@@H](CCCNC(=N)N)C(=O)NCC(=O)O)C(C)C)[C@@H](C)CC)C(=O)O [Liraglutide, reference compound]
Cumulative food intake (C57BL/6 DIO mice [1]): 58.5 ± 2.5 g
Weight (C57BL/6 DIO mice [1]): 40.1 ± 4.9 g
Blood glucose (C57BL/6 DIO mice [2]): 209.2 ± 26.7 mg/dL
High-density lipoprotein (C57BL/6 DIO mice [2]): 74.7 ± 2.6 mg/dL
Low-density lipoprotein (C57BL/6 DIO mice [2]): 9.7 ± 3.3 mg/dL
Triglyceride (C57BL/6 DIO mice [2]): 9.6 ± 0.8 mg/dL

Molecule: HGEGTFTSDLSTYLDALAAC(+mPEG)DFINWLIQTKITDKK(+C16 FA) (HGEGTFTSDLSTYLDALAAC(mPEG 3.4 kDa)DFINWLIQTKITDKK(C16 fatty acid)) [HU020M6, 3.4kDa maleimidated PEG conjugated to cysteine at position 20, C16 fatty acid]
GLP-2 activity Compared to GLP-2 (GLP-2): ~ 0.02%
EC50 (GLP-2; read-out: GLP-2 activity (EC50), Example 5): > 10000 nM
AUClast [3]: 6508.0 ng·h/mL
Cmax [3]: 433.6 ng/mL
T1/2 [3]: 7.0 h
Tmax [3]: 8.0 h

Molecule: HGEGTFTSDLSTYLDALAARDFINWLIQTKITD [HU020]
EC50, cAMP increase in GLP-1R/CHO cells, average (n=4) [4]: 0.0048 nM
Relative to GLP-1 (Exendin-4) %, cAMP in GLP-1R/CHO cells, average (n=4) [4]: 199%
GLP-1 activity (EC50, pM) [5]: 4.15 pM
GLP-1 activity, Compared to GLP-1 (Exendin-4) [5]: 171%

Other lines, results leading:

GLP-1 activity Compared to GLP-1 (Exendin-4) (GLP-1R): 20.2%
GLP-2 activity Compared to GLP-2 (GLP-2): < 4.0%
Molecule: CC[C@H](C)[C@H](NC(=O)[C@H](Cc1ccccc1)NC(=O)[C@H](CC(=O)O)NC(=O)[C@H](CCCNC(=N)N)NC(=O)[C@H](C)NC(=O)[C@H](C)NC(=O)[C@H](CC(C)C)NC(=O)[C@H](C)NC(=O)[C@H](CC(=O)O)NC(=O)[C@H](CC(C)C)NC(=O)[C@H](Cc1ccc(O)cc1)NC(=O)[C@@H](NC(=O)[C@H](CO)NC(=O)[C@H](CC(C)C)NC(=O)[C@H](CC(=O)O)NC(=O)[C@H](CO)NC(=O)[C@@H](NC(=O)[C@H](Cc1ccccc1)NC(=O)[C@@H](NC(=O)CNC(=O)[C@H](CCC(=O)O)NC(=O)C(C)(C)NC(=O)[C@@H](N)Cc1c[nH]cn1)[C@@H](C)O)[C@@H](C)O)[C@@H](C)O)C(=O)N[C@@H](CCCCNC(=O)CC[C@H](NC(=O)CCCCCCCCCCCCCCCCC(=O)O)C(=O)O)C(=O)N[C@@H](Cc1ccccc1)C(=O)N[C@@H](C)C(=O)N[C@@H](Cc1c[nH]c2ccccc12)C(=O)N[C@@H](CC(C)C)C(=O)N[C@H](C(=O)N[C@@H](CCC(N)=O)C(=O)N[C@H](C(=O)N[C@@H](CCCCN)C(=O)N[C@H](C(=O)N[C@H](C(=O)N[C@@H](CC(=O)O)C(=O)O)[C@@H](C)O)[C@@H](C)CC)[C@@H](C)O)[C@@H](C)CC [HU020M7] (HELM PEPTIDE1{H.[Aib].E.G.T.F.T.S.D.L.S.T.Y.L.D.A.L.A.A.R.D.F.I.K.F.A.W.L.I.Q.T.K.I.T.D}|PEPTIDE2{[O=C(O)CCCCCCCCCCCCCCCCC(=O)[*:2]].[gGlu]}$PEPTIDE1,PEPTIDE2,24:R3-2:R2$$$V2.0; N-terminus and C-terminus assumed)

EC50, cAMP increase in GLP-1R/CHO cells, average (n=4) [4]: 0.0151 nM
Relative to GLP-1 (Exendin-4) %, cAMP in GLP-1R/CHO cells, average (n=4) [4]: 63.4%
GLP-1 activity (EC50, pM) [5]: 30.1 pM
GLP-1 activity, Compared to GLP-1 (Exendin-4) [5]: 23.6%
Molecule: HGEGTFTSDLSTYLDALAARDFINWLIQTKITDKK(Palmitoyl) [HU020K2FA]
